In the Immune Epitope Database (IEDB):

What was measured:
[1] = molecular target: HLA-A*24:02; assay: IEDB peptide-MHC binding, purified MHC/competitive/fluorescence; ≥ and ≤ were set here for values at or beyond the usual limits of such assays
[2] = molecular target: HLA-B*08:01; assay: as above
[3] = molecular target: HLA-A*02:03; assay: IEDB peptide-MHC binding, purified MHC/competitive/fluorescence; filed as Kd, often an IC50 or EC50 that approximates it; ≥ and ≤ were set here for values at or beyond the usual limits of such assays
[4] = molecular target: HLA-A*02:06; assay: as above; conditions: source organism: Human immunodeficiency virus 1
[5] = molecular target: HLA-A*68:02; assay: as above
[6] = molecular target: HLA-A*69:01; assay: as above
[7] = molecular target: HLA-B*39:01; assay: as above
[8] = molecular target: HLA-A*30:01; assay: as above; conditions: source organism: Human immunodeficiency virus 1
[9] = molecular target: HLA-A*02:01; assay: as above
[10] = molecular target: HLA-A*31:01; assay: as above; conditions: source organism: Human immunodeficiency virus 1
[11] = molecular target: HLA-A*02:16; assay: as above; conditions: source organism: Burkholderia pseudomallei K96243
[12] = molecular target: HLA-B*07:02; assay: IEDB peptide-MHC binding, purified MHC/competitive/fluorescence; ≥ and ≤ were set here for values at or beyond the usual limits of such assays
[13] = molecular target: HLA-B*15:01; assay: as above
[14] = molecular target: HLA-A*02:01; assay: as above
[15] = molecular target: HLA-A*01:01; assay: IEDB peptide-MHC binding, purified MHC/competitive/fluorescence; filed as Kd, often an IC50 or EC50 that approximates it; ≥ and ≤ were set here for values at or beyond the usual limits of such assays
[16] = molecular target: HLA-A*02:19; assay: as above
[17] = molecular target: HLA-B*27:03; assay: as above
[18] = molecular target: HLA-B*18:01; assay: as above
[19] = molecular target: HLA-A*03:01; assay: as above
[20] = molecular target: HLA-A*29:02; assay: as above
[21] = molecular target: HLA-A*26:01; assay: as above
[22] = molecular target: HLA-A*02:12; assay: as above
[23] = molecular target: HLA-B*51:01; assay: as above
[24] = molecular target: HLA-B*15:01; assay: as above
[25] = molecular target: HLA-B*15:17; assay: as above
[26] = molecular target: HLA-B*57:01; assay: as above
[27] = molecular target: HLA-A*24:03; assay: as above
[28] = molecular target: HLA-B*46:01; assay: as above
[29] = molecular target: HLA-A*01:01; assay: IEDB peptide-MHC binding, purified MHC/competitive/fluorescence; ≥ and ≤ were set here for values at or beyond the usual limits of such assays
[30] = molecular target: HLA-A*02:19; assay: IEDB peptide-MHC binding, purified MHC/direct/fluorescence; filed as Kd, often an IC50 or EC50 that approximates it; ≥ and ≤ were set here for values at or beyond the usual limits of such assays
[31] = molecular target: HLA-A*68:02; assay: as above
[32] = molecular target: HLA-A*01:01; assay: as above; conditions: source organism: Ebola virus - Eckron (Zaire, 1976)
[33] = molecular target: HLA-A*03:01; assay: as above
[34] = molecular target: HLA-A*29:02; assay: as above; conditions: source organism: Zaire ebolavirus
[35] = molecular target: HLA-A*02:12; assay: as above
[36] = molecular target: HLA-A*02:11; assay: as above
[37] = molecular target: HLA-A*02:03; assay: as above; conditions: source organism: Orthohantavirus andesense
[38] = molecular target: HLA-A*02:16; assay: as above; conditions: source organism: Orthohantavirus andesense
[39] = molecular target: HLA-A*03:01; assay: IEDB peptide-MHC binding, purified MHC/competitive/fluorescence; ≥ and ≤ were set here for values at or beyond the usual limits of such assays; conditions: source organism: Vaccinia virus
[40] = molecular target: HLA-A*11:01; assay: as above; conditions: source organism: Vaccinia virus
[41] = source organism: Human immunodeficiency virus 1
[42] = source organism: Zaire ebolavirus
[43] = source organism: Vaccinia virus
[44] = source organism: Cryptosporidium parvum Iowa II
[45] = source organism: Entamoeba dispar SAW760
[46] = source organism: Measles morbillivirus
[47] = source organism: Vaccinia virus Copenhagen
[48] = source organism: Orthohantavirus andesense

With DFHERPVIL the IC50 ([1]; source organism: Variola virus) was 0.0313 µM and the IC50 ([2]; source organism: Variola virus) was ≥ 88.5 µM.
In the case of EELRSLFNTI, the Kd [3, 41] is reported as ≥ 20 µM, the Kd [4] is reported as 1.14 µM and the Kd [5, 41] is reported as ≥ 20 µM.
EELRSLFNTV showed a Kd [4] of 0.302 µM, a Kd [5, 41] of 0.325 µM and a Kd [6, 41] of 0.301 µM.
Sequence EKLKSLFNTI has a Kd [7, 41] of 0.641 µM, a Kd [3, 41] of 0.0368 µM and a Kd [4] of 0.00183 µM. The Kd [5, 41] was ≥ 20 µM, the Kd [8] was 0.0207 µM and the Kd [9, 41] was ≥ 20 µM. The Kd [10] was ≥ 20 µM.
In the case of ELAKPWPGA, the Kd [11] is reported as ≥ 20 µM and the Kd ([9]; source organism: Burkholderia pseudomallei K96243) is reported as 1.21 µM.
FSILNRKAI was tested, and the IC50 [12, 42] was 46.5 µM, the IC50 [13, 42] was 35.8 µM and the IC50 [1, 42] was 5.56 µM. For the same sequence, the IC50 [14, 42] was ≥ 235 µM and the IC50 [2, 42] was 21.6 µM.
With HSDTAKAFA the Kd ([15]; source organism: Escherichia coli) was ≥ 20 µM.
For INPIVKTSL, the IC50 [12, 43] was 21.1 µM and the IC50 [2, 43] was ≥ 88.4 µM.
KIFKVTGEF was tested, and the Kd [16, 44] was ≥ 20 µM, the Kd [7, 44] was ≥ 20 µM and the Kd [17, 44] was ≥ 20 µM. For the same sequence, the Kd [3, 44] was ≥ 20 µM, the Kd [5, 44] was ≥ 20 µM and the Kd [18, 44] was ≥ 20 µM. The Kd [19, 44] was ≥ 20 µM, the Kd [6, 44] was ≥ 20 µM and the Kd [9, 44] was ≥ 20 µM. The Kd [20, 44] was 0.735 µM, the Kd [21, 44] was ≥ 20 µM and the Kd [22, 44] was ≥ 20 µM. The Kd [23, 44] was ≥ 20 µM.
In the case of KSLYNTVATLY, the Kd [3, 41] is reported as ≥ 20 µM, the Kd [15, 41] is reported as ≥ 20 µM and the Kd [18, 41] is reported as ≥ 20 µM. For the same sequence, the Kd [24, 41] was ≥ 20 µM, the Kd [8] was ≥ 20 µM and the Kd [25, 41] was 0.0064 µM. For the same sequence, the Kd [26, 41] was 0.959 µM.
With LVGNTLTTC the Kd [16, 45] was ≥ 20 µM, the Kd [7, 45] was ≥ 20 µM and the Kd [17, 45] was ≥ 20 µM. The Kd [3, 45] was ≥ 20 µM, the Kd [18, 45] was ≥ 20 µM and the Kd [19, 45] was ≥ 20 µM. The Kd [24, 45] was ≥ 20 µM, the Kd [27, 45] was ≥ 20 µM and the Kd [9, 45] was ≥ 20 µM. The Kd [20, 45] was ≥ 20 µM, the Kd [28, 45] was ≥ 20 µM and the Kd [21, 45] was ≥ 20 µM. For the same sequence, the Kd [22, 45] was 4.55 µM, the Kd [23, 45] was ≥ 20 µM and the Kd [26, 45] was ≥ 20 µM.
NSTHNTPVY was tested, and the IC50 [29, 42] was 29.1 µM, the IC50 [13, 42] was ≥ 119 µM and the Kd [30, 42] was ≥ 20 µM. The Kd [31, 42] was ≥ 20 µM, the Kd [32] was ≥ 20 µM and the Kd [33, 42] was ≥ 20 µM. For the same sequence, the Kd [34] was ≥ 20 µM, the Kd [35, 42] was ≥ 20 µM and the Kd [36, 42] was ≥ 20 µM. The Kd [7, 42] was ≥ 20 µM, the Kd [17, 42] was ≥ 20 µM and the Kd [18, 42] was ≥ 20 µM. For the same sequence, the Kd [6, 42] was ≥ 20 µM, the Kd [25, 42] was ≥ 20 µM and the Kd [9, 42] was ≥ 20 µM. For the same sequence, the Kd [28, 42] was ≥ 20 µM, the Kd [21, 42] was ≥ 20 µM and the Kd [23, 42] was ≥ 20 µM. For the same sequence, the Kd [26, 42] was ≥ 20 µM.
With SFSYFYPFR the Kd [15, 46] was ≥ 20 µM and the Kd [20, 46] was 0.458 µM.
With TFALKKLII the IC50 [1, 47] was 0.323 µM, the IC50 [14, 47] was ≥ 131 µM and the IC50 [2, 47] was ≥ 132 µM.
VRQRVIPVY was tested, and the IC50 [13, 42] was 3.26 µM, the IC50 [1, 42] was 23.4 µM and the IC50 [14, 42] was ≥ 524 µM. For the same sequence, the IC50 [2, 42] was ≥ 210 µM.
VWKQLFPEL was tested, and the Kd [30, 48] was ≥ 20 µM, the Kd [37] was ≥ 20 µM and the Kd [31, 48] was ≥ 20 µM. For the same sequence, the Kd [38] was ≥ 20 µM, the Kd [33, 48] was ≥ 20 µM and the Kd [35, 48] was ≥ 20 µM. For the same sequence, the Kd [36, 48] was ≥ 20 µM, the Kd [7, 48] was ≥ 20 µM and the Kd [17, 48] was ≥ 20 µM. For the same sequence, the Kd [18, 48] was ≥ 20 µM, the Kd [27, 48] was 0.0105 µM and the Kd [6, 48] was ≥ 20 µM. The Kd [25, 48] was ≥ 20 µM, the Kd [9, 48] was ≥ 20 µM and the Kd [28, 48] was ≥ 20 µM. The Kd [21, 48] was ≥ 20 µM, the Kd [23, 48] was ≥ 20 µM and the Kd [26, 48] was ≥ 20 µM.
For WAMEKSSKY, the IC50 [29, 43] was 36.8 µM, the IC50 [12, 43] was ≥ 624 µM and the IC50 [39] was ≥ 265 µM. For the same sequence, the IC50 [13, 43] was 9.18 µM, the IC50 [14, 43] was ≥ 122 µM and the IC50 [40] was ≥ 130 µM.
